Source: patent US7507788B2, “Peptides and methods for cell death regulation” (Rappaport Family Institute for Research in the Medical …, priority 2002, dated 2009)

T1: DIAP1 (Drosophila melanogaster, UniProt Q24306)
T1 construct: The full length ORF of diap1 was subcloned into the BamH1 site of pET14b (Novagen); His (N); host or cells: cell-free in vitro transcription-translation (reticulocyte lysate); the partner His-UBCD1 was made in E. coli BL21 (pLysS)
T1 sequence (Q24306 1-438): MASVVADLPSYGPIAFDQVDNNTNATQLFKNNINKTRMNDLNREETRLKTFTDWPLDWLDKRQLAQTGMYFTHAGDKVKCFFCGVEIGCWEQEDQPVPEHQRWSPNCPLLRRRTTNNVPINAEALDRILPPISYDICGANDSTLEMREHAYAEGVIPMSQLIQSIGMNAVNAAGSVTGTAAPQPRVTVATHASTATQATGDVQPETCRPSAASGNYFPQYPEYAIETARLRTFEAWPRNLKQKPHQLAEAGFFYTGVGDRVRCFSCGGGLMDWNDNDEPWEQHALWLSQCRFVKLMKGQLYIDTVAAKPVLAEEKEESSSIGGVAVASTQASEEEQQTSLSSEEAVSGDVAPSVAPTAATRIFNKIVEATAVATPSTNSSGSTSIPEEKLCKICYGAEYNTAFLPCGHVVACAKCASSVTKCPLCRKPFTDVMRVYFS

B1: Reaper: wild type Drosophila IAP inhibitor (IAPi) protein REAPER (RPR) (protein)
chain: MAVAFYIPDQATLLREAEQKEQQILRLRESQWRFLATVVLETLRQYTSCHPKTGRKSGKYRKPSQ

Assays:
human XIAP = molecular target: T2, human XIAP (Homo sapiens, UniProt P98170); experiment: In vitro ubiquitination / self-conjugation reaction with 35S-labeled XIAP; assay type: biochemical; settings: 35S-XIAP; FIG. 8, 15B, 16, 17
T2 construct: host or cells: cell-free in vitro transcription-translation; the partner His-UBCH5C was made in E. coli BL21 (pLysS)
Method: ^35S-methionine labeled mutant and wild type DIAP1, or wild type XIAP were generated in an in vitro transcription-translation system (Promega) from diap1-pET14b, diap1^21-4S pET14b and xiap pcDNA3.1 plasmids. For purification of His-UBCD1 and His-UBCH5C, ubcD1-pET14b and ubcH5C-pT7-7 were expressed in BL21 (pLysS) and purified on a Ni-column according to the manufacturer's protocol (Novagen). In vitro ubiquitination assays were carried out in a total volume of 12.5 μl and contained: ^35S-methionine labeled wild type or mutant DIAP1 or Wild type XIAP (approximately 10,000 cpm), and 250ng E1 (made in baculovirus; vector is the kind gift of Dr. Kazuhiro Iwai, University of Osaka, Osaka, Japan). Unless otherwise stated, 1.2 μg His-UBCD1 or His-UBCH5C was used in each reaction. Reaction mixture contained also 40 mM Tris-HCl, pH 7.6, 5 mM MgCl2, 1 mM DTT, 5 μg ubiquitin, 100 ng Ubiquitin-aldehyde, 2 mM ATPγS [Adenosine 5′-O-(3-thiotriphosphate)]. Reactions were incubated for 50 min at 37° C., and resolved, following addition of a sample buffer on SDS-PAGE (10%). Gels were dried and proteins visualized via Phosphorimaging (Fuji, Japan).

DIAP1 = molecular target: T1, DIAP1; experiment: In vitro ubiquitination / self-conjugation reaction with 35S-labeled DIAP1; assay type: biochemical; settings: 35S-DIAP1 with E1, UBCD1 and ubiquitin; SDS-PAGE; FIG. 13-15A
Method: ^35S-methionine labeled mutant and wild type DIAP1, or wild type XIAP were generated in an in vitro transcription-translation system (Promega) from diap1-pET14b, diap1^21-4S pET14b and xiap pcDNA3.1 plasmids. For purification of His-UBCD1 and His-UBCH5C, ubcD1-pET14b and ubcH5C-pT7-7 were expressed in BL21 (pLysS) and purified on a Ni-column according to the manufacturer's protocol (Novagen). In vitro ubiquitination assays were carried out in a total volume of 12.5 μl and contained: ^35S-methionine labeled wild type or mutant DIAP1 or Wild type XIAP (approximately 10,000 cpm), and 250ng E1 (made in baculovirus; vector is the kind gift of Dr. Kazuhiro Iwai, University of Osaka, Osaka, Japan). […]
In order to determine whether both amino acid consensus sequences described above are essential for IAP degradation, peptides were generated, with amino acid sequences as described in Tables 1, 3 and 5 above, containing one of each amino acid consensus sequence, or both, and their ability to stimulate in vitro IAP ubiquitination was assessed (FIG. 13). ^35S-methionine labeled wild type DIAP1 was incubated with 250 ng E1 and ubiquitin, with or without the addition of the RPR wild type protein, or peptides containing the RHG amino acid consensus sequence of the RPR HID or GRIM proteins, and the reaction products were resolved by SDS-PAGE.

T2 sequence (P98170 whole entry): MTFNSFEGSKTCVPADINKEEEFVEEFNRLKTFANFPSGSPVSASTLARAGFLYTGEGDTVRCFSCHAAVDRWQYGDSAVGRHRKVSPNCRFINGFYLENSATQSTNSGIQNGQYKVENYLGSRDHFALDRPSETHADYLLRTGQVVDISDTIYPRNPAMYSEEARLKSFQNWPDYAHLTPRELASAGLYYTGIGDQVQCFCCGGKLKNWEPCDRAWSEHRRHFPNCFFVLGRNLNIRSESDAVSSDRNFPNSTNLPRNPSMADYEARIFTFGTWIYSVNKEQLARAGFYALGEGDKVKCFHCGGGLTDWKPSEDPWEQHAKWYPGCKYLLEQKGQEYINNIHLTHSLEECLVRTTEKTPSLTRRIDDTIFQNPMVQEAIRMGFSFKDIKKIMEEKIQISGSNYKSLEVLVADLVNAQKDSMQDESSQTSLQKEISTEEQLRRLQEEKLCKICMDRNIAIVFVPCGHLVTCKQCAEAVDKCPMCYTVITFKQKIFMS

Molecule | stimulation of XIAP auto-ubiquitination / self-conjugation in vitro (human XIAP) | stimulation of IAP (DIAP1) self-conjugation / auto-ubiquitination in vitro (DIAP1)
AVAFYIPDQATLLR QWRFLATVVL (AVAFYIPDQATLLRQWRFLATVVL; Drosophila melanogaster) [Peptide R15W, Reaper RHG plus Trp-box peptide] | greatest effect | 
AVPFYLPE QWRFLATVVL (AVPFYLPEQWRFLATVVL; Drosophila melanogaster) [Peptide H9-W, Hid RHG plus Reaper Trp-box peptide] | greatest effect | 
B1 | strongly stimulated | resulted in auto-ubiquitination
